Reference: article PMC5134096

Target: soluble manganese peroxidase (MnP) from Irpex lacteus F17 (Irpex lacteus F17)
Experiment: SEC + other: dynamic light scattering; soluble MnP after Ni-NTA; HiLoad 16/60 Superdex 200 in 20 mM Tris-HCl pH 8.0, 200 mM NaCl; SEC peak II, DLS at room temperature at 0.1 mg/ml in the same buffer

stoichiometry N: 2
Substance: soluble manganese peroxidase (MnP) from Irpex lacteus F17 (enzyme)
